Laboratory results taken from patent publication US20070060521.

Assays:
[1] = tested on: purified baculovirus-expressed STAT3β
[2] = tested on: purified baculovirus-expressed STAT3 (full-length)

Substance | in vitro phosphorylation of STAT3b (32P-ATP, SDS-PAGE, autoradiography) [1] | in vitro phosphorylation of STAT3 (32P-ATP, SDS-PAGE, autoradiography) [2]
purified ERKs protein kinases (BIOMOL) | STAT3b does not undergo serine phosphorylation by any of the MAPKs | STAT3 phosphorylation by ERK, however, is minimal compared to levels achieved for JNK and p38
purified JNK protein kinase (BIOMOL) | STAT3b does not undergo serine phosphorylation by any of the MAPKs | p38 and JNK can effectively phosphorylate STAT3 in vitro
purified p38 protein kinase (AG Scientific) | STAT3b does not undergo serine phosphorylation by any of the MAPKs | p38 and JNK can effectively phosphorylate STAT3 in vitro
